Measured values from a protein production outcome set (Wang et al. 2014).

Test: label from the status in PepcDB records
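Also: failed if final PepcDB status was selected cloned or expressed and not failed if soluble or beyond.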

Sequence	protein production
MNLGQWIGLIALILSLYILWQIKEVLLLMFAAVVLATTLNRLAKRFQRSGMKRGWAVMLAVAIFFAVVVGFFWLIVPPFAEQFNELTYRVPQGFERFNAWINELRTRIPAQLVPYIPDLNSLIQQAQPFINRVLGSSFAIVSGSLEVVLKVLLVLVLTGMLLADPIAYRKVFVRLFPSFYRRRVDGILDQCEVSLEGWVTGAVIAMGVVGLMSVVGLSILGVKAALALGVLAGFLNLIPNLGPTLSVVPAMAIALLDSPWKVVAVLILYFIIQQAESNFITPIVMAQQVSLLPAVTLISQLFFVTFFGFLGLFLALPLTVVAKIWVQEVLIKDVLDEWGHDHSQESELVMVSHYSEGDDHWSDDKQANKPTDDTVSQED	failed
MPQNQLVITIIDESGSKQLKFSKNLKRNLIISVVIFLLIVGLGVGFLKFLIAKMDTMTAERNAVLRDFRDLYQKNYTLTKEIKNKREELFIVGQKIRTIESLIEVKRGANGGVHLYDEVDLDNLNLAQKHLALMLIPNGMPIKTYSAIKPTKERNHPIKKIKGVESGIDFIAPLNTPVYASADGIVDFVKTNSNVGYGNLVRIEHAFGFSSIYTHLDHVNVQPKSFIQKGQLIGYSGKSGNSGGEKLHYEVRFLGKILDAQKFLAWDLDHFQSALEENKFIEWKNLFWVLEDIVQLQEHVDKDALISQ	failed
MSEGSNVLVSIILVNYNGADILPDCLNSIDKFISKDNCEILLVDNASQDNSYELVAQDFPDVKIVRLPKNYGFGAGNNAGAKIAKGKFLLLLNTDTILTTNILPHLIDLMRENPDVGIIGTKLVFPDETFQISFAYTIGIKGEYKSRKLHEYAEDKSKLNSLEQEFNTIKEVDIVVGAALFIRADLFHSVGGFDEKFFIYFEDADLCRRVQNQGYKILYTPQVSLIHIRGHSMKKNANATVVEYRRSQLYYYKKHCPVWERIILRIYLFAKFLPEFLATRNPYSLEIIKLLFVIA	failed
MNRHISFERLHNFRDLGGYTTADGRVVRWGRLFRSDSLGKLTGEEWERFLALGIGTVIDLRYPWEIDAKGRVPEHPAFTYHNLSIEHRPYDQAGLGPDVETGPFLAEKYMEVAHDGVKELRQVVEVIAAVATSTDESVVFHCASGKDRTGLVAALVLALLGVPESQIVEDFTLTELATERLLADWRADHPGQEPTWPGYGRAPADVMRLFLDALTHQHGSMADYARDLLRIDEGLIAALRRNLLEPAAEPELTFRRADHRDLPELVRLRDSAARWQIARGIDQWKPGQLGEDHFRARLADGEIWIATLGPTGPTAGAWELWWDDPAAWGPQPPSAGYVHRLMTDRRTAPPGTGRLMLAEAERRIAETGRTLCRLDCLASNPRLRQYYETAGYTVVGEQSSKDGGLGNTYAVTLLEKTVPEALTPRSTKPAR	failed
MGMIGYFAEIDSEKINQLLESTEKPLMDNIHDTLSGLRRLDIDKRWDFLHFGLTGTSAFDPAKNDPLSRAVLGEHSLEDGIDGFLGLTWNQELAATIDRLESLDRNELRKQFSIKRLNEMEIYPGVTFSEELEGQLFASIMLDMEKLISAYRRMLRQGNHALTVIVG	not failed
MSAHPLAQLETFKHTSKQWNQLREAANMSNRMEHILQAMPSGVVILNGDGIVTDANPVAVELLEQSLCGARWIDVIHTAFAPQDDDGHEVSLRNGRRVKLAITPLTPEPGQLIVLTDLTETRLLQKNLSHLQRLSALGKMVATLAHQVRTPLSAALLYAANLASPKLSDSAKVKFQQKLVDRLNELERQVNDMLLMAKGRQDELGELINLNDVIENVVANCEPIVAKHGAELTVTNASNGLMLANVNALSSAVNNLVMNSLEAGATQIQLVANEIDDQLHLNVVDNGKGLDAKMQQRVLEPFFTTKAQGTGLGLAVVQSVVRNHGGQLQLNCMPNKGCTVSLTFPQAKSATVLPLEKSHV	failed
MHLYDKRPGGGASFSQILGQAKNRQGIFFNTTFAVMGHVAKASGRVTETDIRIATLLMDQMRLTGDARKEAQQAFREGKEPDFDLCSSLQAFRAVTQGRQELVQMFIEIQIQTALSDGELDAAEHAILMTVAQELGYGRLEHHHHHH	failed
MRNETLVSIIVPVYNSAQYLRKCIDSILAQSYTEFELLLINDGSEDHSGLICDDYAQSDNRIQVFHQENAGVSAARNLGLEKHTGEHFLFIDSDDYIQERYLEELMKYASCDFVQCSCCSEPVGNDYLFVDGNFEGSDEIKQCLLKYIYPEFTVPFGRLYKSSIQRKNKLFFDTYLYSGEDTLWVSQYLLCVHSLRVSSYIGYIYVHHVGEHLSQKSISYEHLEYTLHKLLISYSDLEKRYDFDLTGVRYSVIIYFFHRYIVYIANRNYTEIRKELEKSCANPLIKGVFYDKKYLLKGKKMKLFNWLVLHDMYSVLALYVKRWKRYLLEHHHHHH	not failed
MSLENKFARTVLGDIPVEKLGITDCHDHFIKNGGPEVEEHIDFLMLNVDASIKEFKEFIDRGGSTIVTMDPPNVGRDVLKTLEIANAVKNLGGNVIMSTGFHKAKFYDKYSSWLAVVPTEEIVKMCVAEIEEGMDEYNYNGPVVKRSKAKAGIIKAGTGYGAIDRLELKALEVAARTSILTGCPILVHTQLGTMALEVAKHLIGFGANPDKIQISHLNKNPDKYYYEKVIKETGVTLCFDGPDRVKYYPDSLLAENIKYLVDKGLQKHITLSLDAGRILYQRNYGLTKGKQTFGLAYLFDRFLPLLKQVGVSKEAIFDILVNNPKRVLAFDEKRNFDPLKVSKEVLELKKELNLNEGHHHHHH	not failed
MDDDMDIQQSYPFTVEVMPVPNKVVKGQTVEIRCELKKEGDFSGTLYTIRYFQFEGEGSLKMDNGITFLPNDRYLLENEKFRLYYTAAGDEAHNFIVVVEDNFSNSYELEFDFNNRNVKDDDLTIVPIGNFSPLLKLEHHHHHH	failed
MKKTLSVLVISSLLFGANVQAAALNAAQEKEVRALVRDTLVSNPEILEEAIMALQTKKADEQQAQFRQALASEHDALYNDAASPRIGAKDAKLVLVSFTDYNCPYCKRFDPLLEKITEQYPDVAVIIKPLPFKGESSAKASQAVLSVWKEDPKAFLALHQRLMQKKTMLDNASIEDAMKSTNTSKIKLTDDSLKTLQNNLELSRKLGIQGTPATVIGDTILPGAVDYDQLEIIVKEQLAKVKK	failed
MAGATDRDGWKVERGDDSWTVPGYIDLKKLGKGGAGRVMIARHAGTGRNVAIKYLNEELCSKVEFRTALRAEARLLGGLTSPHVTRLYEYVEAEQGAAIVMELVYGAALRTLLKKEGSTDIEAALVVLKGSLLGLAAAHGVGVVHRDYKPENVLVNWDGQTKLVDFGISARTGDRHNLRGTCAYMPPEQWKLEAATPAGDVYAATATLYECVTGVRPFEGPEPWDFQRQHVDEPVPMDRVPEEVRALVRHGMAKDPALRPPSALDFLRELEWAAENAYGPDWEERGQSRLAAVAAALVPLAISRLDARLVGSSAELARTVLTARRRSRLRRRGDVLTGAAAVAVVGLLSLMPSGWAAGGAEGHAGAHAQAVTRLDARKDTGSATEARGTEHGDTAESDPDSDRAGTSGAQGGGGHGDGGAGLAPADGGTRSDSGSGGGAGDSGTDSPDDGNNTVERNGGTENGGTENGGTENGGTENGGTENGGTENGGTENGGTENGGTENGGTENGGTENGGTENGGTENGGTENGGTENGGTENGGTENGGTENGGTENGGTENGGTENGGTENGGTENGGTENGGTENGGTENGGTDNGGTDNGGTDNGGTDARHGHSNAGTSDGDPASTGGTDSGNSAGGTGTGTGSGSTSAVTPRQGDPAAVEGEPG	failed
MQPGRSKAIPSRNASDKAYEPAVLLMRARVLHQQGQLDEARSAYKKVLKKAPDNFMALHFYALAEYQSGNAELGIKTLKRALLADPKSAQAQSDMGSMLIAVGRFADSLASCDKAIAIDPTLMLAYANRGLALSALARYEDAIASFDKAIELMPDRADTWNDRGNALHKLGRYTEALESYDKAIEIDPLSDVAFMNRAGTYKDLKQLDKALASYDRALSIGKRPVQAGLARAETLLFMRNVKDAMATCTAVLKVEPNSAIALTLLGNCMASLGDAETAIALHSRALELMPNYEAAISSKIFSMDFCAGSDVEAQQAVRSSWWTQIGAPIYRACATPPTNDRDPDRRLVVGYVSADFRAHSAAFSFRPVIEHHDHNQFEVVLYSGVVVPDDSTRAFEAIADKWRDATLMSDQGLADQIKEDKVDILVDLSGHSNGNRLRVFARKPAPVQVTAWGHATGTGLPVMDYLLGDPVAIPVEDRHFYAEAVYDLPSIVIIEPVPQQWRSLELPFDRNGYLTYGSLNRISKISDAAIEVWSQVLAASPTSRLILKDHQIDDPAVRQTLLEKFGARGIAAGRITLLGSSSRQDHLETLKQIDLCLDPFPQAGGVSTWEALHMGVPVVSRLGHTVPSRVGCAVLAAAGLPDFIAPNDARYIEIASKPELERLRSIRRGLRDFILQRCGPAAYTRAVEDAYRTMWKRWCAAPFDEAKDRALRRGR	failed
MKKLTVYLATTNPHKVEEIKMIAPEWMEILPSPEKIEVVEDGETFLENSVKKAVVYGKKLKHPVMADDSGLVIYSLGGFPGVMSARFMEEHSYKEKMRTILKMLEGKDRRAAFVCSATFFDPVENTLISVEDRVEGRIANEIRGTGGFGYDPFFIPDGYDKTFGEIPHLKEKISHRSKAFRKLFSVLEKILESENR	not failed
MIGALRHACPGSRAAAFVLSGLQTMTNEVKSAVRVIQILEYFDTVRREAGVLEISRALGFPASSTAGILRSLQRLSYLVQDEQRLYRPTPRVTLLGSWIDPLLAHDGPLMALMSHLSKATGETIILALQVDAGARYIHIIPSTQRVRLHVNVGDVRPLLTSGTGRLFVSTMEPDQVRRAVFRHNALRGANEPEINLSTVTRDATQIRKNGYATSLDRLVPGVGIIAALLPEREGTRPMAVAVGGPSVTIRARTAELASLLREGIGQYLPHLGNAGDQS	failed
MALPRSEDGLVLMWSGGKDAMLALDVLHSQSPRRVGALLTTVTADEERVTMHGTPLSLVERQADALNVPLHVMRVPPQPPNEVYEARLEAALTPLLENGFSTVVAGDLFLDDVRAYREALIESVGATALFPLWGRDTTWLAQRFSTRGYRAVVTAVDTTQLDSSFVGRTYDDSFLEDLPDAVDPCGEKGAFHTFVSDGPPFAASVPVAETGRDTTGRIHTVRLRATGEEA	failed
MCLGIPARVVEVLDGPLPMAVVDMAGEQRPCSVMYVPEVQVGQFVLLQNGYAMEVLDEKSAQESLATIAEFNLVQQVQLAPRE	failed
MEGCVSNIMICNLAYSGKLDELKERILADKSLATRTDQDSRTALHWACSAGHTEIVEFLLQLGVPVNDKDDAGWSPLHIAASAGRDEIVKALLVKGAHVNAVNQNGCTPLHYAASKNRHEIAVMLLEGGANPDAKDHYDATAMHRAAAKGNLKMVHILLFYKASTNIQDTEGNTPLHLACDEERVEEAKFLVTQGASIYIENKEEKTPLQVAKGGLGLILKRLAEGEEASM	not failed
MLDRVIYSLIQTENKSVVNELFFRIAEGEDSFAELARKYSQGAEADRGGIIGPVELGSITPNFAQLLYTSQVGVVQPPVAFGNTWVIVRVEKLIPAQLEHHHHHH	failed
MKKRYKNPEKSGSCGNFIQAIKMTDKVQPLESLSKKPEEPKIVVNLRRIKRKIMVMSGKGGVGKSTVAANLAVGLALRGHRVGLLDCDIHGPTVPTIFGLESARPGVSEEGILPIEVLPNLSVMSIGFLLENKDSPIIWRGPAKMGAIKQFLEEVFWGALDFLIIDLPPGTGDEPLSVAQLIPNCDGSVLVTTPQDVALISVRKSITFSEKLNVPIIGLVDNMHGLICPHCGKPIEVFGSGGVEKASKDFNIPILARLPIEPGVAEMEDRGTVVQDQLKHGTEWQKNFDNVVDAVEKILEKELEHHHHHH	not failed
SLQTSDVVIHRKENEGFGFVIISSLNRPESGSTITVPHKIGRIIDGSPADRCAKLKVGDRILAVNGQSIINMPHADIVKLIKDAGLSVTLRIIPQEELNSP	not failed
